In US8440629B2 one finds Kd, viable cell number (MTT assay, 48 hours) and binding as percent of that for LRP1 CR3-5 data, which are given here for 3 substances.

A value given as a limit tells only on which side of the number the result lay.

Experiment [1] deals with recombinant mouse VLDLR ectodomain (mouse) (UniProt P98156). Description: solid-phase binding assay, immobilised receptor, streptavidin-HRP detection, EDTA-corrected.
The target in experiment [2] is full-length LRP1 expressed on CHO-K1 cells.
The target in a further experiment is LRP6 CR1-3 (human) (UniProt O75581). Description: solid-phase binding assay, immobilised CR protein, anti-RAP detection.
For the next experiment, the target named is LRP6 CR12 (human) (UniProt O75581). Described as above.
The target of the next experiment is LRP6 CR23 (human) (UniProt O75581). The experiment is described as above.
The next experiment deals with VLDLR CR6-8 (human) (UniProt P98155). The description is as above.
The target in another experiment is VLDLR CR78 (human) (UniProt P98155). Described as above.

The Kd is the free concentration of one partner at which half of the binding sites on the other are occupied at equilibrium, for simple one-to-one binding. Regarding “tag-free RAP d3 peptide linked to maleimide-PEO2-biotin (ligand)”, in experiment [1], the Kd came out at 1 nM.

For “mRAPc combined with streptavidin-saporin conjugate”, in experiment [2], the viable cell number (MTT assay, 48 hours) turned out to be 40%.

As to RAP d3 (ligand), the binding as percent of that for LRP1 CR3-5 with LRP6 CR1-3 (human), with LRP6 CR12 (human), with LRP6 CR23 (human) and with VLDLR CR78 (human) was less than 5% in each case. Further, the Kd in the experiment with VLDLR CR6-8 (human) is more than 300 nM.
